Reference: patent US20200157217A1 (SYSTIMMUNE, published 2020)
Numbering of substitutions follows the chain as printed. Where two headings read alike, the source gives them in different places.

B1: 299F6 1.1 (antibody, human IgG1, kappa, V domains shown)
VH: EVQLVESGGGLVQPGGSLRLSCAASGFTISSNAMSWVRQAPGKGLEWIGVITGRDITYYANWAKGRFTISRDNSKNTLYLQMNSLRAEDTAVYYCARDGGSSAITSNNIWGQGTLVTVSS
VL: DIQMTQSPSTLSASVGDRVTITCQASESISSWLAWYQQKPGKAPKLLIYEASKLASGVPSRFSGSGSGTEFTLTISSLQPDDFATYYCQGYFYFISRSYVNAFGGGTKVEIKR
notes: sheet: mAb '299F6 1.1', format 'humanized'; also called 299F6 humanized
B2: 480C8 1.1 (antibody, human IgG1, kappa, V domains shown)
VH: B1 VH with F27I, T28D, I29L, N61S, T105N, N107K
VL: B1 VL with S98T
notes: sheet: mAb '480C8 1.1', format 'humanized'; also called 480C8 humanized
B3: 284A10 1.1 (antibody, human IgG1, kappa, V domains shown)
VH: B1 VH with S31T, N61S
VL: B1 VL with I2V, Q3V, T22N, S98T, A102S
notes: sheet: mAb '284A10 1.1', format 'humanized'; also called 284A10 humanized
B4: 284A10 (antibody, V domains shown)
VH: QSLEESGGRLVTPGTPLTLTCTVSGFTISTNAMSWVRQVPGKGLEWIGVITGRDITYYASWAKGRFTISKTSSTTVDLKMTSLTAEDSATYFCARDGGSSAITSNNIWGPGTLVTVSS
VL: DVVMTQTPPSVSAAVGGTVTIKCQASESISSWLAWYQQKPGQPPKLLIYEASKLASGVPSRFSGSGSGTEFTLTISDLECADAATYYCQGYFYFISRTYVNSFGGGTEVEFK
B5: 295E9 (antibody, V domains shown)
VH: B4 VH with F26I, T27D, I28L, T30S, V39A, T56N, N105K
VL: B4 VL with P9A, S12E, K22N, K39R, S63K, T98S, S102A, E110V, F111V
B6: 299F6 chimeric rabbit/human IgG antibody (antibody, V domains shown)
VH: B4 VH with T30S, V39A, S60N
VL: DVVMTQTPSSVSAAVGGTVTINCQASESISSWLAWYQQKPGQPPKLLIYEASKLASGVPSRFSGSGSGTEFTLTISDLECADAATYYCQGYFYFISRSYVNAFGGGTEVVFKR
B7: 480A7 chimeric rabbit/human IgG antibody (antibody, V domains shown)
VH: B4 VH with F26I, T27D, I28L, T30S, V39A, N105K
VL: B6 VL with S9A, S12E, K39R
B8: 284A10 chimeric rabbit/human IgG antibody (antibody, V domains shown)
VH: B4 VH
VL: B6 VL with S9P, N22K, S98T, A102S, V110E
B9: 295E9 chimeric rabbit/human IgG antibody (antibody, V domains shown)
VH: B4 VH with F26I, T27D, I28L, T30S, V39A, T56N, N105K
VL: B6 VL with S9A, S12E, K39R, S63K, F111V
B10: 480C8 chimeric rabbit/human IgG antibody (antibody, V domains shown)
VH: B4 VH with F26I, T27D, I28L, T30S, V39A, T103N, N105K, P110Q
VL: B6 VL with S98T, V110E
notes: also called 48008

Experiments:
[1] = target: T1, human CD3 Delta/Epsilon Fc fusion protein (human, UniProt P04234 22-105; P07766 23-126); experiment: Octet (bio-layer interferometry), bivalent kdis
T1 construct: Construct limits and Fc are not described; also called Human CD3 Delta-Epsilon Fc ("Knobs-into-hole"-KnH)

[2] = target: Cyno T cell line; experiment: FACS, B cell culture supernatant on the cynomolgus T cell line (HSC-F per paragraph 87)
[3] = target: T2, human CD3 Gamma/Epsilon Fc fusion protein (human, UniProt P09693 23-116; P07766 23-126); experiment: Octet (bio-layer interferometry), bivalent kdis; antigen printed 'Human δ/γ - Fc', taken as the Gamma/Epsilon Fc that paragraph 95 names for FIG. 8
T2 construct: Construct limits and Fc are not described; also called Gamma-Epsilon Fc (KnH)

[4] = target: T3, human CD3 (Delta, Gamma, Epsilon) on the human T cell line Jurkat or on purified human CD3+ T cells (human, UniProt P07766 23-207; P09693 23-182; P04234 22-171); experiment: FACS, antibody titration on Jurkat cells
T3 construct: whole, on cells; On cells CD3 sits in the TCR complex

[5] = target: T2, human CD3 Gamma/Epsilon Fc fusion …; experiment: Octet (bio-layer interferometry), bivalent kdis; antigen printed 'Epsilon-Gamma', taken as the human Gamma/Epsilon Fc that paragraph 95 names for FIG. 8
[6] = target: T3, human CD3 (Delta, Gamma, Epsilon) on …; experiment: FACS, antibody titration on Jurkat cells; remark: listed apart in the source

T2 sequence (P09693 23-116, chain 1 of 2): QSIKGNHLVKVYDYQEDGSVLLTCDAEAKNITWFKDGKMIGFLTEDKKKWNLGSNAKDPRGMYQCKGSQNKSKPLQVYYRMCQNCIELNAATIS
T2 sequence (P07766 23-126, chain 2 of 2): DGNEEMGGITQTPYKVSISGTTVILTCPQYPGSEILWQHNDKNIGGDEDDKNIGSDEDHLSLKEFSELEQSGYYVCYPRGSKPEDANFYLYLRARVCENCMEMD
T1 sequence (P04234 22-105, stated change not applied, chain 1 of 2): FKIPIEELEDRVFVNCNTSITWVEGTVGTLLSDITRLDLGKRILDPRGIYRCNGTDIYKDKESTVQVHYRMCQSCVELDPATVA
T1 sequence (P07766 23-126, stated change not applied, chain 2 of 2): as the sequence (P07766 23-126, chain 2 of 2) above
T3 sequence (P07766 23-207, stated change not applied, chain 1 of 3): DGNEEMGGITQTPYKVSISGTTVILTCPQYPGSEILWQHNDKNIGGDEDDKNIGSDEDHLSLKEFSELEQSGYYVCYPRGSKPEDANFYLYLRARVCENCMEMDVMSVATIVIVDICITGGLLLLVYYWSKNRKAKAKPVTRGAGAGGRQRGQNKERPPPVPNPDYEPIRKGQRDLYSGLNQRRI
T3 sequence (P09693 23-182, stated change not applied, chain 2 of 3): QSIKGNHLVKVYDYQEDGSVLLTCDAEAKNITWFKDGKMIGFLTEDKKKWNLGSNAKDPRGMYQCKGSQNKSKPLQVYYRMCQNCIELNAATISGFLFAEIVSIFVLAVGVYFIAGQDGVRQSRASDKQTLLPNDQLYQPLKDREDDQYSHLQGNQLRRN
T3 sequence (P04234 22-171, stated change not applied, chain 3 of 3): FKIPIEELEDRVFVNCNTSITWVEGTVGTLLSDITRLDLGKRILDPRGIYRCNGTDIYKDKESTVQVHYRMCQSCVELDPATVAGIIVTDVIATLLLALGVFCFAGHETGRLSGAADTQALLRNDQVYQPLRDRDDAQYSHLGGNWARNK

Row | Binder | koff [1] [s⁻¹] | koff [3] [s⁻¹] | further results
1 | B1 | 0.0006 | – | –
2 | B2 | 0.0005 | – | –
3 | B3 | 0.00053 | – | –
4 | B4 | – | – | MFI [2]: 615 MFI
5 | B5 | – | – | MFI [2]: 549 MFI
6 | B6 | 0.00049 | 0.00045 | –
7 | B7 | 0.00066 | – | binding result [4]: binds; koff [5]: 0.0006 s⁻¹
8 | B8 | 0.0005 | 0.0013 | –
9 | B9 | 0.0052 | 0.0052 | –
10 | B10 | 0.00042 | 0.00054 | binding result [6]: binds
